Laboratory results as given in patent US20160368965A1 (IMMATICS BIOTECHNOLOGIES, published 2016).

Biological target: T1, HLA-A*02:01 (human)
T1 construct: the tested peptide takes its place; also called peptide-receptive MHC molecules; MHC class I
Experiment: UV-ligand exchange, anti-β2m ELISA; grade of peptide exchange yield
Source text: Candidate peptides for T cell based therapies according to the present invention were further tested for their MHC binding capacity (affinity). The individual peptide-MHC complexes were produced by UV-ligand exchange, where a UV-sensitive peptide is cleaved upon UV-irradiation, and exchanged with the peptide of interest as analyzed. Only peptide candidates that can effectively bind and stabilize the peptide-receptive MHC molecules prevent dissociation of the MHC complexes. To determine the yield of the exchange reaction, an ELISA was performed based on the detection of the light chain (β2m) of stabilized MHC complexes. The assay was performed as generally described in Rodenko et al. (Rodenko et al., 2006).
96 well MAXISorp plates (NUNC) were coated over night with 2 ug/ml streptavidin in PBS at room temperature, washed 4× and blocked for 1h at 37° C. in 2% BSA containing blocking buffer. Refolded HLA-A*02:01/MLA-001 monomers served as standards, covering the range of 15-500 ng/ml. Peptide-MHC monomers of the UV-exchange reaction were diluted 100 fold in blocking buffer. Samples were incubated for 1 h at 37° C., washed four times, incubated with 2 ug/ml HRP conjugated anti-β2m for 1h at 37° C., washed again and detected with TMB solution that is stopped with […]. Absorption was measured at 450 nm. Candidate peptides that show a high exchange yield (preferably higher than 50%, most preferred higher than 75%) are generally preferred for a generation and production of antibodies or fragments thereof, and/or T cell receptors or fragments thereof, as they show sufficient avidity to the MHC molecules and prevent dissociation of the MHC complexes.

## ALVEENGIFEL [ALVEENGIFEL (SEQ ID NO: 101)]
  peptide exchange yield: 50 to 75%

## AVAAVLTQV [AVAAVLTQV (SEQ ID NO: 103)]
  peptide exchange yield: 50 to 75%

## YLTNEGIAHL [YLTNEGIAHL (SEQ ID NO: 92)]
  peptide exchange yield: ≥ 75%

## GLLPALVAL [GLLPALVAL (SEQ ID NO: 87)]
  peptide exchange yield: 50 to 75%

## ALYPGTDYTV [ALYPGTDYTV (SEQ ID NO: 102)]
  peptide exchange yield: 50 to 75%

## VMMEEFVQL [VMMEEFVQL (SEQ ID NO: 94)]
  peptide exchange yield: 50 to 75%

## ALFGAGPASI [ALFGAGPASI (SEQ ID NO: 100)]
  peptide exchange yield: 50 to 75%

## ALESFLKQV [ALESFLKQV (SEQ ID NO: 99)]
  peptide exchange yield: 50 to 75%

## ALADDDFLTV [ALADDDFLTV (SEQ ID NO: 95)]
  peptide exchange yield: 50 to 75%

## KLADIQIEQL [KLADIQIEQL (SEQ ID NO: 89)]
  peptide exchange yield: 50 to 75%

## ALAPATGGGSLLL [ALAPATGGGSLLL (SEQ ID NO: 96)]
  peptide exchange yield: 50 to 75%

## LLFNDVQTL [LLFNDVQTL (SEQ ID NO: 91)]
  peptide exchange yield: 50 to 75%

## KLLTPITTL [KLLTPITTL (SEQ ID NO: 90)]
  peptide exchange yield: 50 to 75%

## ALDQKVRSV [ALDQKVRSV (SEQ ID NO: 98)]
  peptide exchange yield: 20 to 50%

## QIIDAINKV [QIIDAINKV (SEQ ID NO: 9)]
  peptide exchange yield: 20 to 50%

## SIDSEPALV [SIDSEPALV (SEQ ID NO: 93)]
  peptide exchange yield: 50 to 75%

## IIDDTIFNL [IIDDTIFNL (SEQ ID NO: 88)]
  peptide exchange yield: 50 to 75%

## GLGDFIFYSV [GLGDFIFYSV (SEQ ID NO: 86)]
  peptide exchange yield: ≥ 75%

## ALDDMISTL [ALDDMISTL (SEQ ID NO: 97)]
  peptide exchange yield: 50 to 75%
